Reference: patent US11529390B2, “PCSK9 inhibitory polypolypeptides and methods of use” (INSTITUT DE CARDIOLOGIE DE MONTREAL, priority 2015, dated 2022)
Read-outs that look alike come from different tables or passages of the source.

Tests used:
PCSK9-V5 = target: T1, PCSK9-V5 (Homo sapiens, UniProt Q8NBP7); assay: Co-immunoprecipitation of GRP94 constructs with PCSK9-V5 in transfected HEK293 cells; format: binding
T1 construct: Full-length human V5-tagged PCSK9 and LDLR were subcloned into pIRES2-EGFP; expressed in transfected cells; host or cells: HEK293
T1 sequence (Q8NBP7 153-692): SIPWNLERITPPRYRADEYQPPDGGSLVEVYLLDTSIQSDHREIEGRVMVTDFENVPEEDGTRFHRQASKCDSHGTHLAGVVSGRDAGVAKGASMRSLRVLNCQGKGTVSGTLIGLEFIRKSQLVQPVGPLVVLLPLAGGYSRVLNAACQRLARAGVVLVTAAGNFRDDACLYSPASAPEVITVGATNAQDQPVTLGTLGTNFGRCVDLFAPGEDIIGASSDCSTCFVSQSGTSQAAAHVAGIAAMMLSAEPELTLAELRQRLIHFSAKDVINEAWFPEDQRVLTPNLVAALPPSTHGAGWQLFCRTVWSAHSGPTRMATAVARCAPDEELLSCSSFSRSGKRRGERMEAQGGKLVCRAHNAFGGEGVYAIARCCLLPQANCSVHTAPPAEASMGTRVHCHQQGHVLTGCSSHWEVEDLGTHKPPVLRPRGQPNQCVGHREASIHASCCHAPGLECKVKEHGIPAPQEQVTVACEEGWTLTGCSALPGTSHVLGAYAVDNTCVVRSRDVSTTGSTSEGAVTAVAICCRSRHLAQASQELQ
Procedure: FIG. 2: Mapping of the PCSK9-GRP94 interacting domain. (a-b) HEK293 cells were transfected without (−) or with (+) PCSK9-V5 or SEQ ID NO. 66, 64 or 65. A PCSK9 V5 epitope-tag fusion protein (PCSK9-V5) was immune-precipitated from cell lysates using mAb-V5 antibody (IP: V5) and immune-blotted as indicated. Total GRP94 (SEQ. ID. NO. 3) and PCSK9 (SEQ. ID. NO. 1) protein levels were analyzed by immune-blotting in cell lysates (input) and conditioned media. (c) Left panel; HEK293 cells were transfected without (−) or with (+) PCSK9-V5, SEQ. ID. NO. 66 or 46. PCSK9-V5 was immune-precipitated for cell lysates (IP: V5) and immune-blotted (IB) as indicated. Total GRP94 and PCSK9 protein levels were also analyzed by immune-blotting and herein used as a control (input). Right panel; GRP94 homodimer (gray and yellow) crystal structure was determined from PDB file #2O1V using MacPymol software. […] 6 in which critical residues for PCSK9 binding determined in (b) are indicated in blue for SEQ. ID. NO. 64 and red for SEQ. ID. NO. 65. Data are representative of at least three independent experiments.
For identification of novel PCSK9 interactors, HepG2 or Huh-7 cells (55 cm2) were washed three times in phosphate-buffered saline (PBS) and incubated with 1 mM dithiobis[succinimidylpropionate] (DSP; Cat. #22585, Thermo Scientific), a thiol-cleavable cross-linking reagent, for 30 min at room temperature and subsequently switch for 15 min into a stop solution (15 mM Tris, pH 7.5). Cells were then lysed in complete radio-immune precipitation assay (RIPA) buffer (50 mM Tris/HCl, pH 8.0, 1% (v/v) Nonidet P40, 0.5% sodium deoxycholate, 150 mM NaCl and 0.1% (v/v) sodium dodecyl sulfate (SDS)) supplemented with a complete protease inhibitor mixture (Cat. #11 697 498 001, Roche Applied Science), passed 25 times through a 22-gauge needle and centrifuged at 11,000 g for 15 min at 4° C. Supernatants were incubated and rotated overnight with pre-immune serum, rabbit anti-hPCSK9 (amino acids 31-454) (1:250; Dr. Nabil Seidah, Clinical Research Institute of Montreal) or mouse anti-V5-tag (1:500; Cat. #R96025, Life Technologies) together with 50 μl protein A/G PLUS-agarose (Cat. #sc-2003, Santa Cruz). Following overnight incubation, beads were washed six times in RIPA buffer and resuspended in 75 μl Laemmli sample buffer. Co-immunoprecipitated (Co-IP) proteins were separated by 8% SDS-polyacrylamide gel electrophoresis and visualized using the Pierce silver stain kit (Cat. #24600, Thermo Scientific) according the manufacturer's instructions. All other Co-IP experiments were performed as described without the cross-linking step and in SDS-deprived RIPA buffer. HA-tagged proteins and GRP94 were immunoprecipitated with mouse anti-HA-tag (1:500; Cat. #H3663, Sigma-Aldrich) or rat anti-Grp94 (9G10, 1:1000; Cat. #ADI-SPA-850, Enzo Life Sciences).
We next decided to map GRP94 domain(s) important for PCSK9 protein-protein interaction. The overall domain structure of GRP94 includes a signal polypeptide (amino acids; aa1-21) followed by a N-terminal enzymatic ATP-binding domain (aa22-651), client-binding domain (CBD; aa652-678), C-terminal dimerization domain (aa679-799) and a KDEL polypeptide sequence (aa800-803) allowing retention of GRP94 in the endoplasmic reticulum. (Dollins et al., 2007; Maki et al., 1990; Wu et al., 2012) Thus, we first generated cDNA constructs encoding secretable HA-tagged forms of human GRP94 lacking its C-terminal KDEL polypeptide (SEQ ID. NO. 66; FIG. 2). HEK293 cells were transfected without or with SEQ ID. NO. 66 in absence or presence of PCSK9-V5 (FIG. 2a). […] NO. 66 is well expressed (Input; IB: HA) and secreted into media and that SEQ ID. NO. […] It was reported that a 27 aa C-terminal hydrophobic loop structure within GRP94 client-binding domain (CBD, amino acids aa652-678; ^652[…], SEQ ID. NO. 4) was important for folding and interaction with Toll-like receptors and integrins. (Wu et al., 2012) Deletion or alanine-scan mutations in SEQ ID. […]

[1] = system: LDLR degradation induced by overexpression of PCSK9; assay: LDLR degradation after co-expression with PCSK9-V5 (intracellular pathway), immunoblot; format: cell-based, human
Procedure: FIG. 7: SEQ ID NO. 6 prevents PCSK9-induced LDLR degradation. (a) Left; Coomassie staining of purified recombinant SEQ ID NO. 6 and PCSK9 separated by SDS-PAGE is shown. Right; HepG2 cells were incubated in DMEM without or with 0, 25, 100 or 250 nM SEQ ID NO. 6 alone or in presence of recombinant PCSK9. (b) HepG2 cells were transfected without (−) or with PCSK9-V5 in absence (−) or presence SEQ ID NO. 66 or SEQ ID NO. 46. Total LDLR, PCSK9, SEQ ID NO. 66, SEQ ID NO. 46 and β-actin protein levels were analyzed by immunoblotting in cell lysates and conditioned media as indicated. Data are representative of at least three independent experiments.
We next tested whether SEQ ID. NO. 6 could alter the capacity of PCSK9 to induce LDLR degradation. HepG2 cells were incubated overnight with an increasing amount of recombinant SEQ ID. NO. 6 in absence or presence of exogenous PCSK9 (FIG. 7a). […] NO. […] Although that SEQ ID. NO. […] NO. […] (Poirier et al., 2009) As PCSK9 was also shown to induce LDLR degradation via an intracellular pathway, (Poirier et al., 2009) we evaluated to ability of SEQ ID. NO. 66 or SEQ ID. NO. 46 to neutralize PCSK9 in HepG2 cells following co-expression (FIG. 7b). Similar to the extracellular pathway (FIGS. 5b and 7a), both SEQ ID. NO. 66 and SEQ ID. NO. […] NO. 66 and specifically SEQ ID. NO. […]

B1: SEQ ID. NO. 7: polypeptide of the invention; in b217 apparently the truncated CBD-CT form of GRP94 (protein)
chain: MRALWVLGLCCVLLTFGSVRAYGWSGNMERIMKAQAYQTGKDISTNYYASQKKTFEINPRHPLIRDMLRRIKEDEDDKTVLDLAVVLFETATLRSGYLLPDTKAYGDRIERMLRLSLNIDPDAKVEEEPEEEPEETAEDTTEDTEQDEDEEMDVGTDEEEETAKESTAE
B1 was tested, and the “Interaction (binding) with PCSK9 by co-immunoprecipitation” value (shortened to “Interaction (binding) with PCSK9”) (PCSK9-V5) was “significantly enhanced”.

B2: SEQ ID. NO. 64: alanine-scanning mutant of GRP94-ΔKDEL, CBD region YAASAAAAAIMKAQAYQTGKDISTNYY (SEQ ID. NO. 78) (protein, listed as Homo Sapiens)
chain: MRALWVLGLCCVLLTFGSVRADDEVDVDGTVEEDLGKSREGSRTDDEVVQREEEAIQLDGLNASQIRELREKSEKFAFQAEVNRMMKLIINSLYKNKEIFLRELISNASDALDKIRLISLTDENALSGNEELTVKIKCDKEKNLLHVTDTGVGMTREELVKNLGTIAKSGTSEFLNKMTEAQEDGQSTSELIGQFGVGFYSAFLVADKVIVTSKHNNDTQHIWESDSNEFSVIADPRGNTLGRGTTITLVLKEEASDYLELDTIKNLVKKYSQFINFPIYVWSSKTETVEEPMEEEEAAKEEKEESDDEAAVEEEEEEKKPKTKKVEKTVWDWELMNDIKPIWQRPSKEVEEDEYKAFYKSFSKESDDPMAYIHFTAEGEVTFKSILFVPTSAPRGLFDEYGSKKSDYIKLYVRRVFITDDFHDMMPKYLNFVKGVVDSDDLPLNVSRETLQQHKLLKVIRKKLVRKTLDMIKKIADDKYNDTFWKEFGTNIKLGVIEDHSNRTRLAKLLRFQSSHHPTDITSLDQYVERMKEKQDKIYFMAGSSRKEAESSPFVERLLKKGYEVIYLTEPVDEYCIQALPEFDGKRFQNVAKEGVKFDESEKTKESREAVEKEFEPLLNWMKDKALKDKIEKAVVSQRLTESPCALVASQYAASAAAAAIMKAQAYQTGKDISTNYYASQKKTFEINPRHPLIRDMLRRIKEDEDDKTVLDLAVVLFETATLRSGYLLPDTKAYGDRIERMLRLSLNIDPDAKVEEEPEEEPEETAEDTTEDTEQDEDEEMDVGTDEEEETAKESTAEYPYDVPDYA
In the case of B2, the “Interaction (binding) with PCSK9” value (PCSK9-V5) is reported as “abrogate binding to PCSK9” and the “Interaction (binding) with PCSK9” value (PCSK9-V5; listed as AA1) is reported as “abolished PCSK9 binding”.

B3: SEQ ID. NO. 65: alanine-scanning mutant of GRP94-ΔKDEL, CBD region YGWSGNMERIMKAQAYATGKAISTNAA (SEQ ID. NO. 79) (protein, listed as Homo Sapiens)
chain: MRALWVLGLCCVLLTFGSVRADDEVDVDGTVEEDLGKSREGSRTDDEVVQREEEAIQLDGLNASQIRELREKSEKFAFQAEVNRMMKLIINSLYKNKEIFLRELISNASDALDKIRLISLTDENALSGNEELTVKIKCDKEKNLLHVTDTGVGMTREELVKNLGTIAKSGTSEFLNKMTEAQEDGQSTSELIGQFGVGFYSAFLVADKVIVTSKHNNDTQHIWESDSNEFSVIADPRGNTLGRGTTITLVLKEEASDYLELDTIKNLVKKYSQFINFPIYVWSSKTETVEEPMEEEEAAKEEKEESDDEAAVEEEEEEKKPKTKKVEKTVWDWELMNDIKPIWQRPSKEVEEDEYKAFYKSFSKESDDPMAYIHFTAEGEVTFKSILFVPTSAPRGLFDEYGSKKSDYIKLYVRRVFITDDFHDMMPKYLNFVKGVVDSDDLPLNVSRETLQQHKLLKVIRKKLVRKTLDMIKKIADDKYNDTFWKEFGTNIKLGVIEDHSNRTRLAKLLRFQSSHHPTDITSLDQYVERMKEKQDKIYFMAGSSRKEAESSPFVERLLKKGYEVIYLTEPVDEYCIQALPEFDGKRFQNVAKEGVKFDESEKTKESREAVEKEFEPLLNWMKDKALKDKIEKAVVSQRLTESPCALVASQYGWSGNMERIMKAQAYATGKAISTNAAASQKKTFEINPRHPLIRDMLRRIKEDEDDKTVLDLAVVLFETATLRSGYLLPDTKAYGDRIERMLRLSLNIDPDAKVEEEPEEEPEETAEDTTEDTEQDEDEEMDVGTDEEEETAKESTAEYPYDVPDYA
In the case of B3, the “Interaction (binding) with PCSK9” value (PCSK9-V5) is reported as “abrogate binding to PCSK9” and the “Interaction (binding) with PCSK9” value (PCSK9-V5; listed as AA2) is reported as “abolished PCSK9 binding”.

B4: SEQ ID. NO. 46: secretable HA-tagged GRP94 signal polypeptide, client-binding domain and C-terminal domain lacking KDEL (CBD-CT) (protein)
chain: MRALWVLGLCCVLLTFGSVRAYGWSGNMERIMKAQAYQTGKDISTNYYASQKKTFEINPRHPLIRDMLRRIKEDEDDKTVLDLAVVLFETATLRSGYLLPDTKAYGDRIERMLRLSLNIDPDAKVEEEPEEEPEETAEDTTEDTEQDEDEEMDVGTDEEEETAKESTAEYPYDVPDYA
In the case of B4, the “Block of LDLR degradation induced by overexpression of PCSK9” value [1] is reported as “significantly block”.
